This is an account of results in publication PMC6167752 (ACS infectious diseases, 2018).

As a reminder, the Km is the concentration of substrate that gives half-maximal velocity. As a reminder, the kcat is the maximal rate divided by the concentration of active sites. A word on the kcat/Km: it is the second-order rate constant that governs catalysis at low substrate concentration.

Data set [1] concerns the target AAC(2′)-Ia (Providencia stuartii, UniProt Q52424). Nature of the data set: X-ray crystal structure. The class given is binding.
In data set [2] the test system is CN[C@@H]1[C@@H](O)[C@@H](O[C@@H]2[C@@H](O)[C@H](O[C@H]3OC(CNCCO)=CC[C@H]3N)[C@@H](N)C[C@H]2NC(=O)[C@@H](O)CCN)OC[C@]1(C)O. Nature of the data set: purified protein. The class given is biochemical, Providencia stuartii. The following applies: 150 μM AcCoA, 25 mM MES pH 6, 25 °C.

Sequence of AAC(2′)-Ia (Q52424 whole entry): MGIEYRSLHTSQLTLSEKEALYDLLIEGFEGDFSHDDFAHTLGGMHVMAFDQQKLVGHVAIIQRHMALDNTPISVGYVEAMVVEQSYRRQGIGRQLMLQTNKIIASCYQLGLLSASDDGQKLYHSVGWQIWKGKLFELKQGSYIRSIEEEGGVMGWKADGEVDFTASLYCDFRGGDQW

Take `CC(C)(COP(=O)(O)OP(=O)(O)OC[C@H]1O[C@@H](n2cnc3c(N)ncnc32)[C@H](O)[C@@H]1OP(=O)(O)O)[C@@H](O)C(=O)NCCC(=O)NCCS` [coenzyme A]: the X-ray crystal structure entry in data set [1] (active site) is “one dimer contained a coenzyme A bound to each active site”. For the molecule AAC(2′)-Ia (Providencia stuartii), in data set [2], the Km worked out at 370 ± 90 µM, the kcat was found to be 0.9 ± 0.1 s⁻¹ and the kcat/Km stood at 2400 M⁻¹ s⁻¹. For the molecule `CC(=O)SCCNC(=O)CCNC(=O)[C@H](O)C(C)(C)COP(=O)(O)OP(=O)(O)OC[C@H]1O[C@@H](n2cnc3c(N)ncnc32)[C@H](O)[C@@H]1OP(=O)(O)O` [acetyl-coenzyme A], in data set [1] (one molecule modelled), the X-ray crystal structure entry was “one acetyl-coenzyme A, and three coenzyme A molecules was evident in difference density maps”.
